Source: patent publication US20220153832A1 (PIONYR IMMUNOTHERAPEUTICS, published 2022)
Numbering of substitutions follows the chain as printed.

T1: N-terminally polyhistidine tagged human MARCO ECD (147-520), recombinant (human, UniProt Q9UEW3 147-520)
T1 construct: also called PI-RG-3000; recombinant human MARCO; not shown: N-terminal polyhistidine tag
T1 sequence: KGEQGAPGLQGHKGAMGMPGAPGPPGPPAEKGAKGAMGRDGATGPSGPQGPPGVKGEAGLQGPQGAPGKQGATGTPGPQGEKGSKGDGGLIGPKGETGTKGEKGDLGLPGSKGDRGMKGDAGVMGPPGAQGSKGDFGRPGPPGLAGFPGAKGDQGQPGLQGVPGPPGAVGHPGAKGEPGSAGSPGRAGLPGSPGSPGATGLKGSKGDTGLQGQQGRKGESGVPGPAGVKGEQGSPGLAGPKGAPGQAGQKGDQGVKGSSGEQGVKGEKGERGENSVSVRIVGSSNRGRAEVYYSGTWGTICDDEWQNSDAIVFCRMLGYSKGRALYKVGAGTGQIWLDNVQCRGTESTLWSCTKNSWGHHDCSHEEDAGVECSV

T2: recombinant cynomolgus MARCO protein (cynomolgus, UniProt A0A2K5X0Z2 65-519)
T2 construct: Construct not described; also called cyno MARCO; cynoMARCO
T2 sequence: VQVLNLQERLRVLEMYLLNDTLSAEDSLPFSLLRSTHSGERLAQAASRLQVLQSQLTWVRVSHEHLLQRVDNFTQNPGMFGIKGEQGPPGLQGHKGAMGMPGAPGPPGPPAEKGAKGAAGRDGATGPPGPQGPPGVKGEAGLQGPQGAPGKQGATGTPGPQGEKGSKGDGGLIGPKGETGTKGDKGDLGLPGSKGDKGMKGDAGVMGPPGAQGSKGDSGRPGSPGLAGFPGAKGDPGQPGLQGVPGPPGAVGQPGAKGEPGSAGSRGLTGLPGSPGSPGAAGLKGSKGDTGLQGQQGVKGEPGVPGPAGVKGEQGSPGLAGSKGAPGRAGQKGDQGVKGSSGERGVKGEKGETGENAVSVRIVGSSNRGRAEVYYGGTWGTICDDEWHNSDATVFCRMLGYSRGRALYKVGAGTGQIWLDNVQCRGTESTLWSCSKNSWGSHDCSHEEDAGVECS

T3: Human Macrophage Receptor with Collagenous Structure (MARCO), full length, on cells (human, UniProt Q9UEW3 1-520)
T3 construct: the cell type is named under assay; also called huMARCO; HuMARCO
T3 sequence: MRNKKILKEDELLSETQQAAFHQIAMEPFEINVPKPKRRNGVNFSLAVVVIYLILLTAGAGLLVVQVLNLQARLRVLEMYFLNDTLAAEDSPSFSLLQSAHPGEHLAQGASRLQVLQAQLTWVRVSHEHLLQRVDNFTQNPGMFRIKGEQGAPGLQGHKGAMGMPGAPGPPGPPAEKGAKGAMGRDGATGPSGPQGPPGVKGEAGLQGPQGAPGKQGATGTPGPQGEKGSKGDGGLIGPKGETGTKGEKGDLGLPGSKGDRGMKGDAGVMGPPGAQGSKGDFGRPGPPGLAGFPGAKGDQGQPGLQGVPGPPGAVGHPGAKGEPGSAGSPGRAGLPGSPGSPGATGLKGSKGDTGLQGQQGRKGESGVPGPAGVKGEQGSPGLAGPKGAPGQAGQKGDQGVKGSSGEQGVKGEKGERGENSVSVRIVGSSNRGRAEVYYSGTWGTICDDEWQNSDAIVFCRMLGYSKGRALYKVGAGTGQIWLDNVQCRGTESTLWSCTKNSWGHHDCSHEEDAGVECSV

T4: Cynomolgus MARCO, full length, on cells (cynomolgus, UniProt A0A2K5X0Z2 1-519)
T4 construct: whole, on cells; also called cyno MARCO; CyMARCO
T4 sequence: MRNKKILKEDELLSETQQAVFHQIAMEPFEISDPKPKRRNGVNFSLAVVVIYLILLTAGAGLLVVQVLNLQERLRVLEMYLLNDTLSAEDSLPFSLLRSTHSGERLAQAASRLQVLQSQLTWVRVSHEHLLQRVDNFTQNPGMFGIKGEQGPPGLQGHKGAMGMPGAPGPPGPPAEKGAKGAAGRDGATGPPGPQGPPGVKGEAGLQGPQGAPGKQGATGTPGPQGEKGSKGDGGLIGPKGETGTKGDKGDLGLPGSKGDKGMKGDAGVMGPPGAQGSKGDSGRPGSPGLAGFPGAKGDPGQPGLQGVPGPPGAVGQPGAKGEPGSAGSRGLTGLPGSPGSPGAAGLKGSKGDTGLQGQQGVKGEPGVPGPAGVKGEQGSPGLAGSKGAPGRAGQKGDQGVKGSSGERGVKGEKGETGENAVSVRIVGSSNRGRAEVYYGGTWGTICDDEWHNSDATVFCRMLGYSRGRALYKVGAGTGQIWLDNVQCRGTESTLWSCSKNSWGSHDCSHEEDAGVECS

B1: PI-3041-AB (antibody, human IgG1, kappa)
heavy: not shown
light: DIQMTQSPSSLSASVGDRVTITCRASAGISNDLAWYQQKPGKAPKLLIYAASRLQDGVPSRFSGSGSGTDFTLTISSMQPEDFATYYCQQSYKYPWTFGQGTKLEIKRTVAAPSVFIFPPSDEQLKSGTASVVCLLNNFYPREAKVQWKVDNALQSGNSQESVTEQDSKDSTYSLSSTLTLSKADYEKHKVYACEVTHQGLSSPVTKSFNRGEC
notes: Humanized PI-HX-3011, hIgG1
B2: PI-3032-AB (antibody, human IgG1, kappa, V domains shown)
VH: EVQLVESGGGLVQPGGSLRLSCAASKFTFSNYGMNWIRQAPGKGLEWIALIYYNSNNKYYADSVKGRFTISRDNSKNTLYLQMNSLRAEDTAVYYCAKSLTGGSDYFDSWGQGTLVTVSS
VL: DIQMTQSPSSLSASVGDRVTITCRASKSIGTFLAWYQQKPGKAPKLLIYSGSTLESGVPSRFSGSGSGTDFTLTISSLQPEDFATYYCQQHDEYPFTFGQGTKLEIKR
notes: calcium independent
B3: PI-3012-AB (antibody, human IgG1, kappa, V domains shown)
VH: QVQLQESGPGLVKPSETLSLTCTVSGFSLTSYHVSWVRQPPGKGLEWIGAIWTGGSIAYNPSLKSRVTISRDTSKNQVSLKLSSVTAADTAVYYCARDLSDYYSSYTSFDYWGQGTLVTVSS
VL: DIQMTQSPSSLSASVGDRVTITCRASEGISNDLAWYQQKPGKAPKLLIYAASRLQSGVPSRFSGSGSGTDYTLTISSLQPEDFATYYCQQSYKYPLTFGQGTKLEIKR
B4: PI-3025-AB (antibody, human IgG1, kappa)
heavy: not shown
light: B1 light with A27E, F71Y, M78L, W96L
notes: also called PI-3025-AB2

Tests used:
[1] = target: T1, N-terminally polyhistidine tagged human …; test: Biacore; sample stressed 40 C 2 week
Protocol: Binding of the stressed samples to recombinant human MARCO was assessed by Biacore.

[2] = target: T2, recombinant cynomolgus MARCO protein; test: Biacore (SPR), recombinant cyno MARCO
[3] = target: T1, N-terminally polyhistidine tagged human …; test: Biacore (SPR), recombinant human MARCO
Outline: (§1)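 Binding kinetics and affinity of antibodies for the N-terminally His-tagged human MARCO extracellular domain (147-520) were determined by surface plasmon resonance with multi-cycle kinetics on a Biacore T200. The antibodies were captured on a CM4 chip carrying amine-coupled anti-mouse Fc mAb (4500 RU target), and the runs were done at 25° C in 10 mM HEPES pH 7.4, 150 mM NaCl, 3 mM EDTA, 0.05% surfactant P20. The analyte was injected at 0.625–10 nM with 90 s association and 600 s dissociation, and the constants were fitted in BIAevaluation 3.1.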

[4] = target: T1, N-terminally polyhistidine tagged human …; test: Biacore (SPR), binding affinity to human MARCO
Outline: as §1

[5] = target: T1, N-terminally polyhistidine tagged human …; test: Biacore, recombinant human MARCO; control sample
[6] = target: T1, N-terminally polyhistidine tagged human …; test: Biacore; deamidation stress sample (40 C 2 week)
[7] = target: T1, N-terminally polyhistidine tagged human …; test: Biacore; isomerization/fragmentation stress sample
[8] = target: T1, N-terminally polyhistidine tagged human …; test: ELISA on hMARCO ECD with 2 mM Ca2+, A450-A620
[9] = target: T3, Human Macrophage Receptor with …; test: flow cytometry, cells overexpressing human MARCO; hu (first of hu/cyn)
[10] = target: T4, Cynomolgus MARCO, full length, on cells; test: flow cytometry, cells overexpressing cyno MARCO; cyn (second of hu/cyn)
[11] = target: T1, N-terminally polyhistidine tagged human …; test: ELISA readout A450-A620; the panel names no target, the legend says MARCO expressing cells; stable transfection pools
[12] = target: T1, N-terminally polyhistidine tagged human …; test: ELISA readout A450-A620; the panel names no target, the legend says MARCO expressing cells; transiently made reference antibody
[13] = target: T1, N-terminally polyhistidine tagged human …; test: ELISA on hMARCO ECD with 2 mM EDTA, A450-A620
[14] = target: T1, N-terminally polyhistidine tagged human …; test: SPR, single cycle (sc)
[15] = target: T2, recombinant cynomolgus MARCO protein; test: SPR, single cycle (sc)
[16] = target: T4, Cynomolgus MARCO, full length, on cells; test: flow cytometry, cells overexpressing cyno MARCO
[17] = target: T3, Human Macrophage Receptor with …; test: flow cytometry, cells overexpressing human MARCO
[18] = target: T3, Human Macrophage Receptor with …; test: cell-based competition with AF488 E. coli binding to cells expressing MARCO
Protocol: Zombie NIR viability dye (BioLegend), prepared by diluting the stock 1000-fold in D-PBS, was added to the cells and incubated for 10 min at RT in the dark. The reaction was quenched by adding 1 m of 4× Staining buffer (2% FBS in DBPS containing Ca2+), followed by centrifugation at 400×g for 5 min at 4° C. Cells were then plated in V-shaped 96 well plates at a density of 100,000 cells. A488-fluorescently labeled bacteria (E. coli from Invitrogen) was added at 10 μg/ml with the anti-human MARCO antibodies of interest for a 30 min incubation at 37 C. Plates were then washed twice followed by resuspension in 100 ul of staining buffer for acquisition on the flow cytometer (Attune NxT, Life Technologies). Flow cytometry data were analyzed using FlowJo software (version 10.6.1) and data were processed and further analyzed in Microsoft Excel and GraphPad Prism software (version 8).

Binder | Kd [1] [nM] | Kd [2] [nM] | Kd [3] [nM] | koff [3] [s⁻¹] | Kd [4] [nM] | Kd [5] [nM] | Kd [6] [nM] | Kd [7] [nM] | EC50 (read off the curve) [8] [nM] | EC50 [9] [nM] | EC50 [10] [nM] | EC50 (read off the curve) [11] [nM] | EC50 (read off the curve) [12] [nM] | EC50 (read off the curve) [13] [nM] | Kd [14] [nM] | Kd [15] [nM] | EC50 [16] [nM] | EC50 [17] [nM] | EC50 [18] [nM]
B1 | 0.36 | 1.12 | 0.82 | 0.000334 | 0.82 | 0.24 | 0.39 | 0.34 | ~0.8 | 0.704 | 1.03 | ~0.2 | ~0.2 |  |  |  |  |  | 
B2 |  |  |  |  |  |  |  |  | ~0.9 |  |  |  |  | ~0.2 |  |  |  |  | 
B3 |  |  |  |  |  |  |  |  |  |  |  |  |  |  | 1.13 | 0.735 | 1.4 | 0.57 | 0.12
B4 | 0.58 | 1.79 | 1.09 | 0.00043 | 1.09 | 0.54 | 0.66 | 0.66 | ~1 | 0.79 | 1.01 | ~0.2 | ~0.2 |  |  |  |  |  | 
